The values that follow come from patent publication US7407939.

What all share (test): cell-based or functional assay
For one experiment, the target named is protein kinase B, P31749.
The target in experiment [1] is protein kinase A, catalytic subunit.
A further experiment concerns the target protein kinase B (UniProt P31749).

Where no end group is shown, it is not given here. Side-chain parts run from the residue outwards. [ ]: non-standard residue; d: D form. The star is where a group is joined. X1 = 5‑aminoethylsulfonamide isoquinoline, O=S(=O)(NCCN*)c1cccc2cnccc12; hLeu = CC(C)CC[C@H](N)C(=O)O; GltNH2 = not defined here; Nle = CCCC[C@H](N)C(=O)O; Orn = NCCC[C@H](N)C(=O)O; Dab = NCC[C@H](N)C(=O)O; Nva = CCC[C@H](N)C(=O)O; Abu = CC[C@H](N)C(=O)O; Dap = NC[C@H](N)C(=O)O; Ph2 = not defined here; GlyNH2 = aminoglycine; βAla = NCCC(=O)O

protein kinase B, P31749, sequence (P31749 whole entry): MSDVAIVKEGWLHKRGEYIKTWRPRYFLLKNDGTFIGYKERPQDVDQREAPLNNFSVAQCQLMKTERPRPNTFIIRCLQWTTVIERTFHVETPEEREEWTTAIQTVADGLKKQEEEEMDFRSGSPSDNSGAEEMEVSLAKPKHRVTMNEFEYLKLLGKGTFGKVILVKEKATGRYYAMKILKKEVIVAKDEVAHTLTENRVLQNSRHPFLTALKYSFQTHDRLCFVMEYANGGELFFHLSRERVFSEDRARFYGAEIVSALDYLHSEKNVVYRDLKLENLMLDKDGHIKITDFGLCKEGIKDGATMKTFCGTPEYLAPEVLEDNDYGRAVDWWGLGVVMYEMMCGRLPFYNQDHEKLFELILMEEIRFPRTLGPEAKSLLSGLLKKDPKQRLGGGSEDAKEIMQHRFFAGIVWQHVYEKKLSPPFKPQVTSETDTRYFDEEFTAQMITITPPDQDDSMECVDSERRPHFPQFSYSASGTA
protein kinase B, sequence (P31749 whole entry): as above

For RPRVS[Abu]F [TY 60002-61], the Activity PKB with protein kinase B, P31749 stood at 5 µM.

In turn, RPR[Nle]E([βAla-X1])[Nva]F (not fully specified (C-terminus)) [TY-60020-95] displayed an IC50 PKA in experiment [1] of 2000 nM. Besides, in the experiment with protein kinase B, the % inhibition of kinase activity at 1 µM; PKB-kinase (spa) Assay 1 was determined as 46%, the % inhibition of kinase activity at 1 µM; PKB-kinase (spa) Assay 2 is 90% and the IC50 PKB was found to be 3300 nM.

In turn, RPRTS[Dap][hLeu] [TY 60002-96] came in with an Activity PKB with protein kinase B, P31749 of 5 µM.

In the experiment with protein kinase B, P31749, RPR[Nva][GlyNH2][Dap][Ph2] (reading uncertain) [60006-11B] returned a % Inhibition PKB I of 51% and a % Inhibition PKB II of 44%.

In the case of RPRTS[Abu][hLeu] [TY 60002-73], in the experiment with protein kinase B, P31749, the % Inhibition PKB I was determined as 44%, the Activity PKB came to 5 µM and the IC50 µM PKB came to 34 µM.

Turning to RPR[Nle]E([βAla-X1])A[hLeu] (not fully specified (C-terminus)) [TY-60020-94], in the experiment with protein kinase B, the % inhibition of kinase activity at 1 µM; PKB-kinase (spa) Assay 1 was 9% and the % inhibition of kinase activity at 1 µM; PKB-kinase (spa) Assay 2 was 31%.

RPR[Orn]SSF [AR 60003-52] registered an Activity PKB with protein kinase B, P31749 of 2.5 µM.

As for RPR[Nva]SAF [60002-38], in experiment [1], the % Inhibition PKA is -2% and the IC50 µM PKA was found to be 80 µM. In the experiment with protein kinase B, this molecule came in with a % Inhibition PKB I of 43% and an IC50 µM PKB of 18 µM.

In the experiment with protein kinase B, P31749, RPRTS[GlyNH2]F [60005-5] registered a % Inhibition PKB I of 96%, a % Inhibition PKB II of 93% and an IC50 µM PKB of 2.4 µM.

With RPR[Nle]E([Gly-X1])[Dab]F (not fully specified (C-terminus)) [TY-60020-57], in experiment [1], the % inhibition of kinase activity at 1 µM; PKA-kinase Assay 1 was 95%, the % inhibition of kinase activity at 1 µM; PKA-kinase Assay 2 came to 96% and the IC50 PKA worked out at 210 nM. Besides, in the experiment with protein kinase B, the % inhibition of kinase activity at 1 µM; PKB-kinase (spa) Assay 1 is 92%, the % inhibition of kinase activity at 1 µM; PKB-kinase (spa) Assay 2 is 93% and the IC50 PKB came out at 70 nM.

Regarding RPR[Nva][GlyNH2][Abu][hLeu] [60006-7B], in the experiment with protein kinase B, P31749, the % Inhibition PKB I was 53% and the % Inhibition PKB II stood at 47%.

As to RPR[Orn]E([Gly-X1])[Dab][hLeu] (not fully specified (C-terminus)) [TY-60020-42], in experiment [1], the % inhibition of kinase activity at 1 µM; PKA-kinase Assay 1 was 99%, the % inhibition of kinase activity at 1 µM; PKA-kinase Assay 2 is 99% and the IC50 PKA stood at 50 nM. Moreover, in the experiment with protein kinase B, the % inhibition of kinase activity at 1 µM; PKB-kinase (spa) Assay 1 was 80%, the % inhibition of kinase activity at 1 µM; PKB-kinase (spa) Assay 2 turned out to be 86% and the IC50 PKB came out at 110 nM.

In the experiment with protein kinase B, P31749, RPR[Nva][GlyNH2][GltNH2][hLeu] (reading uncertain) [60006-16A] showed a % Inhibition PKB I of 42% and a % Inhibition PKB II of 42%.

Regarding RPR[Orn]E(X1)[Orn]F (not fully specified (C-terminus)) [TY-60020-11], in experiment [1], the % inhibition of kinase activity at 1 µM; PKA-kinase Assay 1 came out at 95% and the % inhibition of kinase activity at 1 µM; PKA-kinase Assay 2 came to 96%. For the same molecule, in the experiment with protein kinase B, the % inhibition of kinase activity at 1 µM; PKB-kinase (spa) Assay 1 was 58% and the % inhibition of kinase activity at 1 µM; PKB-kinase (spa) Assay 2 is 52%.

Regarding RPR[Orn]E(X1)[Dab][hLeu] (not fully specified (C-terminus)) [TY-60020-10], in experiment [1], the % inhibition of kinase activity at 1 µM; PKA-kinase Assay 1 is 92% and the % inhibition of kinase activity at 1 µM; PKA-kinase Assay 2 came out at 94%. In the experiment with protein kinase B, the % inhibition of kinase activity at 1 µM; PKB-kinase (spa) Assay 1 came out at 45% and the % inhibition of kinase activity at 1 µM; PKB-kinase (spa) Assay 2 was determined as 48%.

In the experiment with protein kinase B, P31749, RPR[Nle]SS[Nle] [AR 60003-62] showed a % inhibition at 1 µM of 70% and an Activity PKB of less than 1 µM.

Turning to RPRRSSF [AR 60003-53], in the experiment with protein kinase B, P31749, the Activity PKB was found to be 3 µM.

On to RPR[Nva]TA[hLeu] [60005-84], for which, in experiment [1], the % Inhibition PKA was determined as 7%. In the experiment with protein kinase B, the % Inhibition PKB I stood at 39% and the % Inhibition PKB II came to 48%.

For the molecule RPR[Nva]GA[hLeu] [60006-18A], in experiment [1], the % Inhibition PKA was found to be 11% and the IC50 µM PKA was greater than 100 µM. In the experiment with protein kinase B, this molecule showed a % Inhibition PKB I of 47%, a % Inhibition PKB II of 52% and an IC50 µM PKB of 9.45 µM.

Consider RPR[Nva][GlyNH2]A[hLeu] [60006-5A], for which, in the experiment with protein kinase B, P31749, the % Inhibition PKB I is 47%, the % Inhibition PKB II was determined as 43% and the IC50 µM PKB was 10 µM.

As for RPR[Orn]E(X1)[Dab]F (not fully specified (C-terminus)) [TY-60020-9], in experiment [1], the % inhibition of kinase activity at 1 µM; PKA-kinase Assay 1 stood at 96% and the % inhibition of kinase activity at 1 µM; PKA-kinase Assay 2 came out at 97%. For the same molecule, in the experiment with protein kinase B, the % inhibition of kinase activity at 1 µM; PKB-kinase (spa) Assay 1 amounted to 71% and the % inhibition of kinase activity at 1 µM; PKB-kinase (spa) Assay 2 was 57%.

Regarding RPRT[Abu][Dap]F [60002-88], the % Inhibition PKA in experiment [1] was -3%. Besides, in the experiment with protein kinase B, the % Inhibition PKB I was 40%.

Consider RPRT[GlyNH2]A[hLeu] [60005-32], for which the % Inhibition PKA in experiment [1] worked out at 4%. In the experiment with protein kinase B, this molecule registered a % Inhibition PKB I of 43% and a % Inhibition PKB II of 44%.

In the experiment with protein kinase B, P31749, RPRTSA[hLeu] [TY 60002-50] yielded a % Inhibition PKB I of 62% and an Activity PKB of 5 µM.

On to RPR[Nle]E([Gly-X1])[Orn]F (not fully specified (C-terminus)) [TY-60020-59], for which, in experiment [1], the % inhibition of kinase activity at 1 µM; PKA-kinase Assay 1 was determined as 92%, the % inhibition of kinase activity at 1 µM; PKA-kinase Assay 2 came out at 93% and the IC50 PKA stood at 200 nM. Also, in the experiment with protein kinase B, the % inhibition of kinase activity at 1 µM; PKB-kinase (spa) Assay 1 is 62%, the % inhibition of kinase activity at 1 µM; PKB-kinase (spa) Assay 2 was 75% and the IC50 PKB was found to be 300 nM.

For the molecule RPR[Nle]E([βAla-X1])[Nva][hLeu] (not fully specified (C-terminus)) [TY-60020-96], in the experiment with protein kinase B, the % inhibition of kinase activity at 1 µM; PKB-kinase (spa) Assay 1 was found to be 0% and the % inhibition of kinase activity at 1 µM; PKB-kinase (spa) Assay 2 is 54%.

Regarding RPR[Nva]S[GlyNH2][hLeu] [60005-75], in experiment [1], the % Inhibition PKA is -4%. In the experiment with protein kinase B, the % Inhibition PKB I is 70% and the % Inhibition PKB II amounted to 70%.

For RPR[Nle]E([Gly-X1])[Dab][hLeu] (not fully specified (C-terminus)) [TY-60020-58], in experiment [1], the % inhibition of kinase activity at 1 µM; PKA-kinase Assay 1 worked out at 98%, the % inhibition of kinase activity at 1 µM; PKA-kinase Assay 2 turned out to be 99% and the IC50 PKA stood at 50 nM. For the same molecule, in the experiment with protein kinase B, the % inhibition of kinase activity at 1 µM; PKB-kinase (spa) Assay 1 is 89%, the % inhibition of kinase activity at 1 µM; PKB-kinase (spa) Assay 2 amounted to 93% and the IC50 PKB amounted to 120 nM.

RPRMSSF [AR 60003-50]: the Activity PKB in the experiment with protein kinase B, P31749 is 2.5 µM.

For RPR[Nle]E([βAla-X1])AF (not fully specified (C-terminus)) [TY-60020-93], in the experiment with protein kinase B, the % inhibition of kinase activity at 1 µM; PKB-kinase (spa) Assay 1 was -12% and the % inhibition of kinase activity at 1 µM; PKB-kinase (spa) Assay 2 came to 58%.
